Experimental findings from US9217036 (YALE UNIVERSITY, dated 2015) are described below.

The test has as its target biotin-tagged amyloid-beta 42-amino acid (Aβ42) peptide, oligomer preparation. Kind of test: conclusion from the cell binding studies on transfected COS-7 cells.

B1: full-length mouse PrP, cellular prion protein PrP^c (receptor)
chain: not shown
Take B1: the binding result is listed as “binds”.
